According to article PMC3942486 (2014):

Target: BCL6-POZ domain (residues 7 to 128 of human BCL6, C8Q, C67R, C84N) (human, UniProt P41182 7-128, cysteine8 mutated to glutamine | cysteine67 mutated to arginine | cysteine84 …)
Assay: FP

Binder | Kd [µM]
LVATVKEAGRSIXEIPR (homophenylalanine in place of histidine1426; BODIPY TMR dye coupled via the amino-terminal cysteine) [homophenylalanine-SMRT peptide, labelled with BODIPY TMR] | 43
LVATVKEAGRSIXEIPR (styrylalanine in place of histidine1426; BODIPY TMR dye coupled via the amino-terminal cysteine) [styryl-SMRT peptide, labelled with BODIPY TMR] | 41
